From patent US20030092035A1 (CALIFORNIA INSTITUTE OF TECHNOLOGY, published 2003)
Ends that are not written are not given here.

T1: MRGA1-GFP fusion protein (mouse, UniProt Q91WW5 1-304)
T1 sequence: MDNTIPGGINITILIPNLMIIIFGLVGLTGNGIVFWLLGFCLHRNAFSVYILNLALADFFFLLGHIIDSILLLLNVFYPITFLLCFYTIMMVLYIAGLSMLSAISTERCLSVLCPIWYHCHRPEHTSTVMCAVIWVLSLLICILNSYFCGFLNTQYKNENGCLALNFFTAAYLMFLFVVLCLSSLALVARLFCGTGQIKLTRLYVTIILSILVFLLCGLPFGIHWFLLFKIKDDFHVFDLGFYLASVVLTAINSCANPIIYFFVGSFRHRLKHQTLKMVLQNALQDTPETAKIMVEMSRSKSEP

T2: MRGA4-GFP fusion protein (mouse) (UniProt Q91WW2)
T2 sequence: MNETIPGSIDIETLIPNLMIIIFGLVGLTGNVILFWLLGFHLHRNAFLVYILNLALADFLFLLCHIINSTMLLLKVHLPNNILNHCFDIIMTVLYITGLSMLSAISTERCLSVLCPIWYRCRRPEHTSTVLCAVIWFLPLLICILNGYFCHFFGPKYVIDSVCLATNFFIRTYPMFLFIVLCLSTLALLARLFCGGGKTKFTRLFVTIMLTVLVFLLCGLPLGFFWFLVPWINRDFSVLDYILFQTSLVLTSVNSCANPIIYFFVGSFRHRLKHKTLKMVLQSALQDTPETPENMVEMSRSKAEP


Assays:
[1] = target: T1, MRGA1-GFP fusion protein; assay: cell-based or functional assay
[2] = target: T2, MRGA4-GFP fusion protein (mouse); assay: cell-based or functional assay

| EC50, Ca2+ dose-response in HEK-Galpha15 cells [1] | EC50, Ca2+ dose-response in HEK-Galpha15 cells [2] | Molecule |
| --- | --- | --- |
| 60 nM | 200 nM | ACTH (peptide) |
| ~20 nM |  | FLRF-NH2 [FLRFamide] |

The next lines start with the molecule.

| Molecule | EC50, Ca2+ dose-response in HEK-Galpha15 cells [1] | EC50, Ca2+ dose-response in HEK-Galpha15 cells [2] |
| --- | --- | --- |
| NPFF (peptide) | 200 nM |  |
| AGEGLNSQFWSLAAPQRF-NH2 (peptide, UniProt O15130 93-110, looked up, species assumed, ends and bridges not checked) [NPAF] |  | 60 nM |
